These are literature values, as cited in article PMC9782320.

For the series, the target named is plasmin (Homo sapiens) (UniProt P00747).
Sequence of UniProt P00747 (P00747 581-810): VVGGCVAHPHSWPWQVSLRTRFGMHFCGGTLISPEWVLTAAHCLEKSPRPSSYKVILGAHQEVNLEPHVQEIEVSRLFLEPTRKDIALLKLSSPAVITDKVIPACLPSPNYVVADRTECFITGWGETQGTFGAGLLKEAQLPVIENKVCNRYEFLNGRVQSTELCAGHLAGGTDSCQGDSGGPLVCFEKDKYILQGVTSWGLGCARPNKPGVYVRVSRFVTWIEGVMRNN

Usually Kd stands for the concentration at which binding is half-saturated. Regarding staphylokinase (from UniProt P68801), the Kd was 10 nM.
